T1: His6-BkaRMtb (Mycobacterium tuberculosis H37Rv, UniProt O06169 1-215)
T1 sequence: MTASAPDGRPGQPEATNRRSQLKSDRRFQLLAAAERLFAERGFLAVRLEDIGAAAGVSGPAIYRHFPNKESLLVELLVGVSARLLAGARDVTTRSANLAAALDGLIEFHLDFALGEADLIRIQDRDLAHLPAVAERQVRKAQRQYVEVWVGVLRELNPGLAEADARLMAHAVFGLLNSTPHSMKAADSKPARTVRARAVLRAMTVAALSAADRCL

B1: MSMEG_3415 motif probe (dsDNA)
DNA 1: TACTTCTGAAATAGTTTTGGCTAACCTGGAC
DNA 2: GTCCAGGTTAGCCAAAACTATTTCAGAAGTA
B2: Rv0576 motif probe (dsDNA)
DNA 1: GATCAATACGTTAGTGAGCGCTAACGTATT
DNA 2: AATACGTTAGCGCTCACTAACGTATTGATC
B3: probe 1 (bkaRMtb/fadD35) (dsDNA)
DNA 1: TCGTGCTACGTTAGTGACGATTAACCGAAG
DNA 2: CTTCGGTTAATCGTCACTAACGTAGCACGA
B4: Rv0575c motif probe (dsDNA)
DNA 1: ACGCCAATACGTTAGCGCTCACTAACGTATTG
DNA 2: CAATACGTTAGTGAGCGCTAACGTATTGGCGT
B5: scoA motif probe (dsDNA)
DNA 1: CTCACCTCAGTTAATGATAATTAACTGAAA
DNA 2: TTTCAGTTAATTATCATTAACTGAGGTGAG
B6: MSMEG_4524 motif probe (dsDNA)
DNA 1: CAGCAAGTAAATGTAGCCTAACCTAGCTACG
DNA 2: CGTAGCTAGGTTAGGCTACATTTACTTGCTG
B7: MSMEG_3414 motif probe (dsDNA)
DNA 1: TCGGTCCAGGTTAGCCAAAACTATTTCAGAA
DNA 2: TTCTGAAATAGTTTTGGCTAACCTGGACCGA
B8: MSMEG_4920 motif probe (dsDNA)
DNA 1: GCTGTGTTAACGATGATTAACCGGCACAGC
DNA 2: GCTGTGCCGGTTAATCATCGTTAACACAGC

Tests used:
[1] = target: T1, His6-BkaRMtb; assay: EMSA; 20 mM HEPES pH 7.6, 1 mM EDTA, 10 mM ([…]; temperature not stated; conditions: protein: recombinant, tags: His6 (pNIC28-Bsa4, GenBank EF198106), chain copies: 2, blunt
[2] = target: T1, His6-BkaRMtb; assay: EMSA; 0.6 uM protein, 0.06 uM DNA; 20 mM HEPES pH 7.6, 1 mM EDTA, 10 mM ([…]; temperature not stated; conditions: protein: recombinant; tags: His6 (pNIC28-Bsa4, GenBank EF198106); chain copies: 2; blunt

Binder | binding result [1] | also measured
B1 | no binding | 
B2 | no binding | 
B3 |  | binding result ([1]; label: DIG-11-ddUTP 3' end): binds
B4 | no binding | 
B5 |  | binding result [2]: binds
B6 | no binding | 
B7 | no binding | 
B8 |  | binding result [2]: binds

— paper PMC3920632, “bkaR is a TetR-type repressor that controls an operon associated with branched-chain keto-acid metabolism in Mycobacteria”
